This series is described as follows: soluble on expression in E. coli; label from the status in PepcDB or PDB records.
For the sequence “MATLFIADLHLQTEEPAIVAGFLRFLAVEARQADALYILGDLFEAWIGDDDPNPLHREMAVAIKSLVDSGVPCFFIHGNRDFLIGKRFARESGMILLPQEKVLDLYGRNVLIMHGDTLCTDDAGYQAFRAKVHNPWVQRLFLTLPLFIRRRIAARMRAGSKAANSSKSLDIMDVNAQTVVAEMEKHRVQWLIHGHTHRPAVHELSANDQPAFRVVLGAWHHEGSMVKVTPDNVELIAFPLLEHHHHHH”, the “soluble on expression in E. coli” value is on record as “not soluble”.
Turning to “MSLRIVIAGAGEVGYHLAMSLAPNHDVIIIEKDVSRFERVSELDVVAINGNAANMKVLRDAGVERADVFLAVTGNDEVNLLSGLAAKKVGAKNVIVRVENPEYVDRPIVKEHPLGYDVLICPQLSLAQEAARLIGIPGAIEVVTFSGGKVEMIELQVMEGSKADGKAIADLYLPQNVVIASIYRNGHIEIPRGDTVLRAGDRVAIVSKTEDVEMLKGIFGPPVTRRVTIFGAGTIGSYTAKILAKGMTSVKLIESSMERCEALSGELEGVRIVCGDATDIEFLIEEEIGKSDAVLAATESDEKNLLISLLSKNLGARIAIAKVEKREYVKLFEAVGVDVALNPRSVTYNEVSKLLRTMRIETLAEIEGTAVVEVVVRNTRLVGKALKDLPLPKDAIIGAIVRGNECLIPRGDTTIEYEDRLLVFAKWDEIEKIEEIFREGHHHHHH”, the “soluble on expression in E. coli” value is recorded as “soluble”.
For the sequence “MTIHLISFASILHKQASLRNSHEAILSELEKYYTVKLIDYQDMDKLGSDDFKIIFIATGGVERLVIQHFERLPRPAILLADGMQNSLAAALEISTWLRGRGMKSEILHGELPSIIQRVHILYNNFRAQRSLFGKRIGVIGTPSSWLVASNVDYLLAKRRWGIEYIDIPLERVYEHFKQITDDQVGASCAAVASQALACREGTPEDLIKAMRLYRAIKRICEEEKLEALTLSCFKLIDQIDTTGCLALSLLNDDGIMAGCEGDLQSIFTLLAVKALTGKEGFMANPSTINTRTNELILAHCTIGLKQTERYIIRNHFETEKGIAIQGLLPTGDVTIVKCGGECLDEYYLSTGTLTENTNYINMCRTQVRIRMNTPADYFLKNPLGNHHIMIHGNYEEALNEFLLSNACKRTE”, the “soluble on expression in E. coli” value is “not soluble”.
The entry for “MGSDKIHHHHHHMALVKLQPGDITSDDPIPFPIYSADGKLLLQEGQSVTTSSLLDRLYDLGYRKSTEKVRSGPFNPVSHAPQVNTELLISSAHAHEKALPKPEAISGRSMNVLPTLKHRVEFFRLTPAGGSEAIHVDLVGVVHEKTIIVRSTGPDESVVLDPEHSYQAKLFTGSHLSTFSTRLTPDGVGPFGCYYLEYPDNLIHATVRKHRRVTTSFPAKLQSGEYQRASVDVTVSNISLIGAGVSSSVDFLTVGQSARLSMNLSVAQRVRPVEVYVEVRNRREKDGGFFYGLEFVRVSDEVRLEIKDFVLDSLATL” is “not soluble”; for “TQKPSLYRVLILNDDYTPMEFVVYVLERFFNKSREDATRIMLHVHQNGVGVCGVYTYEVAETKVAQVIDSARRHQHPLQCTMEKD” it is “soluble”; for “DEEDANFMQRAFEMNDKVASDVMVDRTSMSVVDVDETIADALLLYLEEQYSRFPVTADNDKDKIIGYAYNYDIVRQARIDDKAKISTIMRDIVSVPENMKVPDVMEEMSAHRVPMAIVIDEYGGTSGIITDKDVYEELFGNLRDEQDDED” it is “soluble”.
Take “MNIDSDIFKIQSNNVLPSRGKILISEPFLRDATFGRSVVLLIDHTEEGSMGLIINKQLPIFVNDIIKEFKYIENIPLYKGGPIATDTLFYLHTLADIPGAIPISKGLYLNGDFDEIKKYILQGNKVDRYIRFFLGYSGWESEQLSTELKENTWLVSKEENAYLMNGDTKDMWKQALEKLGSKYETWSRFPQVPTFNLEHHHHHH”: the “soluble on expression in E. coli” value was “soluble”.
As to “MGSDKIHHHHHHMNSIFTEENLLAFTTAARFGSFSKAAEELGLTTSAISYTIKRMETGLDVVLFTRSTRSIELTESGRYFFRKATDLLNDFYAIKRRIDTISQGIEARVRICINQLLYTPKHTARLLQVLKKQFPTCQITVTTEVYNGVWDAIINNQANIAIGAPDTLLDGGGIDYTEIGAIRWAFAIAPDHPLAFVPEPIAESQLRLYPNIMVEDTAHTINKKVGWLLHGQESILVPDFNTKCQCQILGEGIGFLPDYMVREAMTQSLLVTRQIHNPRQDSRMLLATQHSATGQVTQWIKKQFAPNGILTGIYQDLLHREN”, the “soluble on expression in E. coli” value was “not soluble”.
Turning to “MSKDFIINEQIRAREVRLIDQNGDQLGIKSKQEALEIAARRNLDLVLVAPNAKPPVCRIMDYGKFRFEQQKKEKEARK”, the “soluble on expression in E. coli” value was “soluble”.
The entry for “MTASDSAADETGDLRHEAHAWVISLTSGRVTQGDARAFRQWCARSPQHLRAFVEARDLWQALGSAAALPLEPPAVAQIAPRRFGRRWFVGGALAASVALFVLRPSLLDHGLGGADYVTAVGEQRQVQVSGETRIEMNTRTRLNVRRNQEQQETIELLGGEAEIIASHPPQSSLRVMAGSAWLSASRARFNVRSSGDVCVVTCLEGSVRLEHLGQRLDLQAGQQLTFDERRNGPPVPFDVAEVMAWRERMLVFNDVPLATVIDEINRYRPGMLLLLDKALGRRRVQARFSLDQLADVATLIRDAYGIEVTRLPGGVVLLG” is “not soluble”; for “GKLDATLRAIVHTAAELVDARYGALGVRGYDHRLVEFVYEGIDEETRHLIGSLPEGRGVLGALIEEPKPIRLDDISRHPASVGFPLHHPPMRTFLGVPVRIRDEVFGNLYLTEKADGQPFSDDDEVLVQALAAAAGIAVDNARLFEESR” it is “soluble”.
Turning to “MGSDKIHHHHHHMSQQLTFADSEFSSKRRQTRKEIFLSRMENLLPWSQLLDVIEPFYPKVGNGRRPYPLETMFRIHCMQQWYSLSDEATEDALYEIASMRQFALLSLDKAIPDRTTIMNFRHLLEKHKLTRKLFKTVNQWLSDSGVMMTQGTLVDATIIEAPSSTKNKNNERDPDMHQTKKGNQWHFGMKAYIGVDAKSGLTHTLVTTAANEHDLNQLDNLLHGEEEFVSGDAGYQGAQKREELKDTNVEWLIAERPGKIRALKKRPRKNKTIINIEYLKASIRAKVEHPFRIIKCQFGFIKARYKGLMKNDSQLAMLFTLANLFTVDQMLRRQPRSV”, the “soluble on expression in E. coli” value is listed as “not soluble”.
Turning to “MSLSTARIMLVDDHPIVREGYRRLIERRPGYAVVAEAADAGEAYRLYRETTPDIVVMDLTLPGPGGIEATRHIRQWDGAARILIFTMHQGSAFALKAFEAGASGYVTKSSDPAELVQAIEAILAGRRAMSPDIAQEIAEERVEGRATAIADLSPRETEILRMLASGMTSDEIAAGLCLSVKTVQNNHYQIKAKLGARTDAHLVWVAIEAGLVREGHHHHHH”, the “soluble on expression in E. coli” value is reported as “soluble”.
Take “MGSDKIHHHHHHMDLWKLYQPGTPAAIVAWGQLGTAHAKTTYGLLRHSRLFKPVCVVAEHEGKMASDFVKPVRYDVPVVSSVEKAKEMGAEVLIIGVSNPGGYLEEQIATLVKKALSLGMDVISGLHFKISQQTEFLKIAHENGTRIIDIRIPPLELDVLRGGIYRKKIKVVGVFGTDCVVGKRTTAVQLWERALEKGIKAGFLATGQTGILIGADAGYVIDAVPADFVSGVVEKAVLKLEKTGKEIVFVEGQGALRHPAYGQVTLGLLYGSNPDVVFLVHDPSRDHFESFPEIPKKPDFEEERRLIETLSNAKVIGGVSLNGGFETDLPVYDPFNTDDLDEMLERAMVW”: the “soluble on expression in E. coli” value is on record as “soluble”.
As to “VALLGLILPYFVSRWWARTQSYTKKGIHNVTASNFVSNLVNYKPSEIVTTDLILHWLSFAHEFKQFFPDLQPTDFEKLLQDHINRRDSGKLNNAKFRIVAKCHSLLHGLLDIACGFRNLDIALGAINTFKCIVQAVPLTPNCQILQLPNVDKEHFITKTGDIHTLGKLFTLEDAKIGEVLGIKDQAKLNETLRVASHIPNLKIIKADFLVPGENQVTPSSTPYISLKVLVRSAKQPLIPTSLIPEENLTEPQDFESQRDPFAMMSKQPLVPYSFAPFFPTKRRGSWCCLVSSQKDGKILQTPIII”, the “soluble on expression in E. coli” value was “not soluble”.
The entry for “MSLSNKDIRVVVGMSGGVDSSVTAHVLKEQGYDVIGIFMKNWDDTDENGVCTATEDYNDVIEVCNQIGIPYYAVNFEKEYWDKVFTYFLDEYKKGRTPNPDVMCNKEIKFKAFLDHAMNLGADYVATGHYARIHRHEDGHVEMLRGVDNNKDQTYFLNQLSQQQLSKVMFPIGDIEKSEVRRIAEEQGLVTAKKKDSTGICFIGEKNFKTFLSQYLPAQPGDMITLDGKKMGKHSGLMYYTIGQRHGLGIGGDGDPWFVVGKNLKDNVLYVEQGFHHDALYSDYLIASDYSFVNPEDNDLDQGFECTAKFRYRQKDTKVFVKRENDHALRVTFAEPVRAITPGQAVVFYQGDVCLGGATIDDVFKNEGQLNYVVEGHHHHHH” is “soluble”; for “MKEANLLIDLRGEPGINCNGFCKFCYFRKVNKNNPQPFGCRYCQFTVGCDYCMYSVREINGDFIPLPFALMELQSSLLFKRYSKVNLTAGGDVSCYPQLEELCKAINNIGLKIHLGYTSGKGFDNVEIAKNLVDYGVDEVTFSVFSTNPKLRKEWMNDKNAETALKCLRYFCENCEVHCAIIVIPGVNDGEELKKTVSDLVDWGANAVILMRFANSEEQGLILGNAPLIEGIKPHSVEEFKNIVDEIHNEFGDYIRVTGTPLHDPVAGTPFALAKEENSHILERLKDKINGEATIITGNVAYPFLKKIFDETSVNVVKVNKDIADLITAKDLEKLDLKDVKETVFIPPKAFVHDRVAEEILRRDGVDRIVVRGVEQLTLDGEVSGIYTREEALKFEIEAFEELIGMINFFGMKKQ” it is “not soluble”; for “MGSDKIHHHHHHMGQRIIIDPVTRIEGHAKISIHLDDHGDVAETRFHVTEFRGFERFCIGRPFWEMPGITARICGICPVSHLLASARAGDGILAVLIPPAAEKLRRLMNLAQIIQSHALSFFHLSGPDLMLGFDSDPAQRNIFGLIAADPDVARNGIRLRQFGQEVIEMLGGRKIHPAWAVPGGVRSGLSASSRDHIRAKLPEMLTIACDALGRLKQLSAKYQREIETFGVFPSLYLGMVGPGGRWMHYGGKLRVIDHTGNILIDELDPIDYRDVIGEAVEPWSYLKFPYIRALGYPQGMYRVGPLARINICTTMGAERADAELRELRQAVGPVIHGSFYYHHARLIEIIAALERMEVLVEDDDLLSTELRADAGVNRHEAVGVSEAPRGTLFHHYRVDEKGLITDVNLIIATGQNNLAINRTVGQIAQSYIRHGQFDEGILNRIEAGVRAYDPCLSCSTHAVGQMAMEVDLYNAQGELINRLSR” it is “not soluble”.
The same measure for “MSLRNPIRIFIVDDHEIVRQGLKVIINQEQDFELVGESNGQKGLLKEIAEAHPDVLLLDIRISGSDGFDIASQLNEKFPSIKILIISGYESELYLVEALDHKVSGFIPKGSSRDYVCSAIRMVALGGTVWHGELLYRVIRGLSRLGNEPNDTKVQIGKSHLKPRELKVLSLLAKGKLNKEICFELQISMDTVKKDIHQLKSKYGVFNRTQLATIATEMQLKEGHHHHHH”: “not soluble”; for “QAKQTMQTLSTLNELGSKVEEVRNFFNFELPYRVKHVDQVSLKLQLVYAVRLQLESEVSDANGPDVTQLLYSTDRFLESARAFIGSDGELVSLAEQLHTSRGAENNSQQIENMYYRLGALVLESIFSDSNTNTDTYRELDLLFIESDSLSTGERSAFQRRLAQTSSVLAANAQGSYLANQLLKPDFPNQLVSMKATLEQK”: “not soluble”; for “MSLNAPQWLGAEGEKIAARHLAAKGYRIVARNYRFHRNEIDIIAFDGEALCFIEVKTRASLGKGHPAESVTRSKQKEIARAAAGYLASLDDPWITCRFDVIAVLALSIDERSIRKYEIEHIKAAFMVGDKGEGHHHHHH”: “soluble”.

(Values after the DeepSol protein solubility set.)
